IntAct's records for PubMed 23850456

B1: Gremlin-2 (Mus musculus), O88273 (parent)
chain: MFWKLSLTLLLVAVLVKVAETRKNRPAGAIPSPYKDGSSNNSERWHHQIKEVLASSQEALVVTERKYLKSDWCKTQPLRQTVSEEGCRSRTILNRFCYGQCNSFYIPRHVKKEEDSFQSCAFCKPQRVTSVIVELECPGLDPPFRIKKIQKVKHCRCMSVNLSDSDKQ
partner: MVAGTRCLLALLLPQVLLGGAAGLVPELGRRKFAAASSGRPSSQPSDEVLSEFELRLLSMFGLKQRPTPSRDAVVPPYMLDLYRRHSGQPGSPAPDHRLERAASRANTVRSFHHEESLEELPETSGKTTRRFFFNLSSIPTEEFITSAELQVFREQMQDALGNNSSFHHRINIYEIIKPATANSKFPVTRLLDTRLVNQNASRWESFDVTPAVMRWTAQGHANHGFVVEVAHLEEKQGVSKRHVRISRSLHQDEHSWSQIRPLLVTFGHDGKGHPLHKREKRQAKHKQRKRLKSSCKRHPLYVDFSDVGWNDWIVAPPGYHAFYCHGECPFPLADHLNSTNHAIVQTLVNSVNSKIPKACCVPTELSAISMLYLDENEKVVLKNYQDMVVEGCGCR
B2: Gremlin-2 (Mus musculus), O88273 (parent)
chain: B1 chain
partner: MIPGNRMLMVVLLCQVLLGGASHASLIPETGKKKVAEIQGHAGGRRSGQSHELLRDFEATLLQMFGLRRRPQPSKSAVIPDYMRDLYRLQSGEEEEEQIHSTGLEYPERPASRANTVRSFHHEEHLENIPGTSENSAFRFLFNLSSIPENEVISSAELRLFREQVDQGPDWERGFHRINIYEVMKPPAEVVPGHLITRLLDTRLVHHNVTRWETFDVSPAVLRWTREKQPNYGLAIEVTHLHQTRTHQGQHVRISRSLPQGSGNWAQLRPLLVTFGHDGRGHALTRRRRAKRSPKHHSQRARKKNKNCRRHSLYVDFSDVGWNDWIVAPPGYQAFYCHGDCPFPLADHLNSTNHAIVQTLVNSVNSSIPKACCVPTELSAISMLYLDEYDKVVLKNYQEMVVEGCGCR

Variants of: B1
Settings: with bmp2_human BMP2, P12643

Row | Variant | effect of a mutation on the interaction
1 | F104A | decreasing interaction strength
2 | W72A | decreasing interaction strength
3 | Y98A | decreasing interaction strength

Other lines, results leading:

Row | effect of a mutation on the interaction | Variant
4 | decreasing interaction strength | Y105A
5 | decreasing interaction strength | F117A

Variants of: B2
Settings: with bmp4_human BMP4, P12644

Row | Variant | effect of a mutation on the interaction
6 | Y98A | decreasing interaction strength
7 | W72A | decreasing interaction strength

More lines, now with the values ahead:

Row | effect of a mutation on the interaction | Variant
8 | decreasing interaction strength | F117A
9 | decreasing interaction strength | Y105A
10 | decreasing interaction strength | F104A
